These results are taken from article PMC5472690, “3-Hydroxybenzoate 6-Hydroxylase from Rhodococcus jostii RHA1 Contains a Phosphatidylinositol Cofactor” (Frontiers in Microbiology, 2017).

For one series, the target named is T1, Rj3HB6H (Rhodococcus jostii, UniProt Q0SFK6).
T1 construct: gene RHA1_ro01869; full length, C-terminal His6 tag, produced in R. jostii RHA1#2; N-terminal Met lacking; 46,761 Da subunit; homodimer
The series can be described thus: X-ray crystal structure, […] Å. The format is binding. The conditions noted are these: pH 8.5 precipitant; co-bound phospholipid.

A further series concerns O=C(O)c1cccc(O)c1. Briefly: purified protein. The note with it: fixed NADH, 50 mM Tris-SO4, pH 8.0, 25°C.
Substrate in the series “purified protein”: NC(=O)C1=CN([C@@H]2O[C@H](COP(=O)(O)OP(=O)(O)OC[C@H]3O[C@@H](n4cnc5c(N)ncnc54)[C@H](O)[C@@H]3O)[C@@H](O)[C@H]2O)C=CC1
Briefly: purified protein. The note with it: fixed 3-hydroxybenzoate, 50 mM Tris-SO4, pH 8.0, 25°C.

As usually defined, the Km is the concentration of substrate that gives half-maximal velocity. One may read the kcat as the number of substrate molecules converted per active site and unit of time at saturation.

As to `Cc1cc2nc3c(=O)[nH]c(=O)nc-3n(C[C@H](O)[C@H](O)[C@H](O)COP(=O)(O)OP(=O)(O)OC[C@H]3O[C@@H](n4cnc5c(N)ncnc54)[C@H](O)[C@@H]3O)c2cc1C` [FAD], the “X-ray crystal structure, 2.3 Å” value on Rj3HB6H is given as “The isoalloxazine moiety of FAD was refined with full occupancy”.

Take Rj3HB6H (Rhodococcus jostii RHA1): in the series with O=C(O)c1cccc(O)c1, the Michaelis constant (Km) was determined as 35 ± 3 µM and the kcat stood at 20 ± 1 s⁻¹.

B1: Rj3HB6H (Rhodococcus jostii RHA1) (protein)
chain: SNLQDARIIIAGGGIGGAANALALAQKGANVTLFERASEFGEVGAGLQVGPHGARILDSWGVLDDVLSRAFLPKNIVFRDAITAEVLTKIDLGSEFRGRYGGPYFVTHRSDLHATLVDAARAAGAELHTGVTVTDVITEGDKAIVSTDDGRTHEADIALGMDGLKSRLREKISGDEPVSSGYAAYRGTTPYRDVELDEDIEDVVGYIGPRCHFIQYPLRGGEMLNQVAVFESPGFKNGIENWGGPEELEQAYAHCHENVRRGIDYLWKDRWWPMYDREPIENWVDGRMILLGDAAHPPLQYLASGAVMAIEDAKCLADYAAEDFSTGGNSAWPQILKEVNTERAPRCNRILTTGRMWGELWHLDGTARIARNELFRTRDTSSYKYTDWLWGYSSDRAS
As to B1, in “purified protein”, the Michaelis-Menten constant (Km) was found to be 68 ± 5 µM and the catalytic constant (kcat) came to 20 ± 1 s⁻¹.
